Bridges are numbered along the chain shown (N, C = ends). Primed or numbered codes have the meaning given here. [ ]: non-standard residue; d: D form. 2Nal = N[C@@H](Cc1ccc2ccccc2c1)C(=O)O; Cit = NC(=O)NCCC[C@H](N)C(=O)O; Dab = NCC[C@H](N)C(=O)O; Pip′ = not defined here
B1: Example 28 (peptide)
peptide: cyclo(YR[Cit]FRVPRR[2Nal]FY[Cit]K[dP]P)
SMILES: CC(C)[C@@H]1NC(=O)[C@H](CCCNC(=N)N)NC(=O)[C@H](Cc2ccccc2)NC(=O)[C@H](CCCNC(N)=O)NC(=O)[C@H](CCCNC(=N)N)NC(=O)[C@H](Cc2ccc(O)cc2)NC(=O)[C@@H]2CCCN2C(=O)[C@H]2CCCN2C(=O)[C@H](CCCCN)NC(=O)[C@H](CCCNC(N)=O)NC(=O)[C@H](Cc2ccc(O)cc2)NC(=O)[C@H](Cc2ccccc2)NC(=O)[C@H](Cc2ccc3ccccc3c2)NC(=O)[C@H](CCCNC(=N)N)NC(=O)[C@H](CCCNC(=N)N)NC(=O)[C@@H]2CCCN2C1=O
B2: Example 32 (peptide)
peptide: cyclo(YR[Cit]VRV[dP]RR[2Nal]FY[Cit]K[dP]P)
SMILES: CC(C)[C@@H]1NC(=O)[C@H](CCCNC(N)=O)NC(=O)[C@H](CCCNC(=N)N)NC(=O)[C@H](Cc2ccc(O)cc2)NC(=O)[C@@H]2CCCN2C(=O)[C@H]2CCCN2C(=O)[C@H](CCCCN)NC(=O)[C@H](CCCNC(N)=O)NC(=O)[C@H](Cc2ccc(O)cc2)NC(=O)[C@H](Cc2ccccc2)NC(=O)[C@H](Cc2ccc3ccccc3c2)NC(=O)[C@H](CCCNC(=N)N)NC(=O)[C@H](CCCNC(=N)N)NC(=O)[C@H]2CCCN2C(=O)[C@H](C(C)C)NC(=O)[C@H](CCCNC(=N)N)NC1=O
B3: Example 148 (peptide)
peptide: cyclo(YRYCRG[dP]RRYCYQK[dP]P)
modifications: disulfide 4-11
SMILES: N=C(N)NCCC[C@@H]1NC(=O)[C@@H]2CSSC[C@H](NC(=O)[C@H](Cc3ccc(O)cc3)NC(=O)[C@H](CCCNC(=N)N)NC(=O)[C@H](CCCNC(=N)N)NC(=O)[C@H]3CCCN3C(=O)CNC1=O)C(=O)N[C@@H](Cc1ccc(O)cc1)C(=O)N[C@@H](CCC(N)=O)C(=O)N[C@@H](CCCCN)C(=O)N1CCC[C@@H]1C(=O)N1CCC[C@H]1C(=O)N[C@@H](Cc1ccc(O)cc1)C(=O)N[C@@H](CCCNC(=N)N)C(=O)N[C@@H](Cc1ccc(O)cc1)C(=O)N2
B4: Example 152 (peptide)
peptide: cyclo(YR[Cit][Dab]RG[dP]RRWEY[Cit]K[dP]P)
modifications: lactam 4-11
SMILES: N=C(N)NCCC[C@@H]1NC(=O)[C@@H]2CCNC(=O)CC[C@H](NC(=O)[C@H](Cc3c[nH]c4ccccc34)NC(=O)[C@H](CCCNC(=N)N)NC(=O)[C@H](CCCNC(=N)N)NC(=O)[C@H]3CCCN3C(=O)CNC1=O)C(=O)N[C@@H](Cc1ccc(O)cc1)C(=O)N[C@@H](CCCNC(N)=O)C(=O)N[C@@H](CCCCN)C(=O)N1CCC[C@@H]1C(=O)N1CCC[C@H]1C(=O)N[C@@H](Cc1ccc(O)cc1)C(=O)N[C@@H](CCCNC(=N)N)C(=O)N[C@@H](CCCNC(N)=O)C(=O)N2
B5: Example 147 (peptide)
peptide: cyclo(YRICRG[dP]RRYCYQK[dP]P)
modifications: disulfide 4-11
SMILES: CC[C@H](C)[C@@H]1NC(=O)[C@H](CCCNC(=N)N)NC(=O)[C@H](Cc2ccc(O)cc2)NC(=O)[C@@H]2CCCN2C(=O)[C@H]2CCCN2C(=O)[C@H](CCCCN)NC(=O)[C@H](CCC(N)=O)NC(=O)[C@H](Cc2ccc(O)cc2)NC(=O)[C@@H]2CSSC[C@H](NC1=O)C(=O)N[C@@H](CCCNC(=N)N)C(=O)NCC(=O)N1CCC[C@@H]1C(=O)N[C@@H](CCCNC(=N)N)C(=O)N[C@@H](CCCNC(=N)N)C(=O)N[C@@H](Cc1ccc(O)cc1)C(=O)N2
B6: Example 151 (peptide)
peptide: cyclo(YR[Cit]SRG[dP]RRWNY[Cit]K[dP]P)
SMILES: N=C(N)NCCC[C@@H]1NC(=O)[C@H](CO)NC(=O)[C@H](CCCNC(N)=O)NC(=O)[C@H](CCCNC(=N)N)NC(=O)[C@H](Cc2ccc(O)cc2)NC(=O)[C@@H]2CCCN2C(=O)[C@H]2CCCN2C(=O)[C@H](CCCCN)NC(=O)[C@H](CCCNC(N)=O)NC(=O)[C@H](Cc2ccc(O)cc2)NC(=O)[C@H](CC(N)=O)NC(=O)[C@H](Cc2c[nH]c3ccccc23)NC(=O)[C@H](CCCNC(=N)N)NC(=O)[C@H](CCCNC(=N)N)NC(=O)[C@H]2CCCN2C(=O)CNC1=O
B7: Example 52 (peptide)
peptide: cyclo(YR[Cit]CRGGRR[2Nal]CY[Cit]K[dP]P)
modifications: disulfide 4-11
SMILES: N=C(N)NCCC[C@@H]1NC(=O)CNC(=O)CNC(=O)[C@H](CCCNC(=N)N)NC(=O)[C@@H]2CSSC[C@H](NC(=O)[C@H](Cc3ccc4ccccc4c3)NC(=O)[C@H](CCCNC(=N)N)NC1=O)C(=O)N[C@@H](Cc1ccc(O)cc1)C(=O)N[C@@H](CCCNC(N)=O)C(=O)N[C@@H](CCCCN)C(=O)N1CCC[C@@H]1C(=O)N1CCC[C@H]1C(=O)N[C@@H](Cc1ccc(O)cc1)C(=O)N[C@@H](CCCNC(=N)N)C(=O)N[C@@H](CCCNC(N)=O)C(=O)N2
B8: Example 146 (peptide)
peptide: cyclo(YRTCRG[dP]RRYCY[Cit]K[dP]P)
modifications: disulfide 4-11
SMILES: C[C@@H](O)[C@@H]1NC(=O)[C@H](CCCNC(=N)N)NC(=O)[C@H](Cc2ccc(O)cc2)NC(=O)[C@@H]2CCCN2C(=O)[C@H]2CCCN2C(=O)[C@H](CCCCN)NC(=O)[C@H](CCCNC(N)=O)NC(=O)[C@H](Cc2ccc(O)cc2)NC(=O)[C@@H]2CSSC[C@H](NC1=O)C(=O)N[C@@H](CCCNC(=N)N)C(=O)NCC(=O)N1CCC[C@@H]1C(=O)N[C@@H](CCCNC(=N)N)C(=O)N[C@@H](CCCNC(=N)N)C(=O)N[C@@H](Cc1ccc(O)cc1)C(=O)N2
B9: Example 25 (peptide)
peptide: cyclo(YR[Cit]VR[Cit][dP]RR[2Nal]VY[Cit]K[dP]P)
SMILES: CC(C)[C@@H]1NC(=O)[C@H](Cc2ccc3ccccc3c2)NC(=O)[C@H](CCCNC(=N)N)NC(=O)[C@H](CCCNC(=N)N)NC(=O)[C@H]2CCCN2C(=O)[C@H](CCCNC(N)=O)NC(=O)[C@H](CCCNC(=N)N)NC(=O)[C@H](C(C)C)NC(=O)[C@H](CCCNC(N)=O)NC(=O)[C@H](CCCNC(=N)N)NC(=O)[C@H](Cc2ccc(O)cc2)NC(=O)[C@@H]2CCCN2C(=O)[C@H]2CCCN2C(=O)[C@H](CCCCN)NC(=O)[C@H](CCCNC(N)=O)NC(=O)[C@H](Cc2ccc(O)cc2)NC1=O
B10: Example 158 (peptide)
peptide: RRWCYQKGYXPYGYRXCRGP
modifications: D-Pro at P10; Cit at P16; disulfide Cys P4-Cys P17; backbone-cyclic via template Gly-LPro
B11: Example 149 (peptide)
peptide: cyclo(YR[Cit]CRG[dP]RRYCYQK[dQ]P)
modifications: disulfide 4-11
SMILES: N=C(N)NCCC[C@@H]1NC(=O)[C@@H]2CSSC[C@H](NC(=O)[C@H](Cc3ccc(O)cc3)NC(=O)[C@H](CCCNC(=N)N)NC(=O)[C@H](CCCNC(=N)N)NC(=O)[C@H]3CCCN3C(=O)CNC1=O)C(=O)N[C@@H](Cc1ccc(O)cc1)C(=O)N[C@@H](CCC(N)=O)C(=O)N[C@@H](CCCCN)C(=O)N[C@H](CCC(N)=O)C(=O)N1CCC[C@H]1C(=O)N[C@@H](Cc1ccc(O)cc1)C(=O)N[C@@H](CCCNC(=N)N)C(=O)N[C@@H](CCCNC(N)=O)C(=O)N2
B12: Example 31 (peptide)
peptide: cyclo(YR[Cit]VR[Cit]PRR[2Nal]FY[Cit]K[dP]P)
SMILES: CC(C)[C@@H]1NC(=O)[C@H](CCCNC(N)=O)NC(=O)[C@H](CCCNC(=N)N)NC(=O)[C@H](Cc2ccc(O)cc2)NC(=O)[C@@H]2CCCN2C(=O)[C@H]2CCCN2C(=O)[C@H](CCCCN)NC(=O)[C@H](CCCNC(N)=O)NC(=O)[C@H](Cc2ccc(O)cc2)NC(=O)[C@H](Cc2ccccc2)NC(=O)[C@H](Cc2ccc3ccccc3c2)NC(=O)[C@H](CCCNC(=N)N)NC(=O)[C@H](CCCNC(=N)N)NC(=O)[C@@H]2CCCN2C(=O)[C@H](CCCNC(N)=O)NC(=O)[C@H](CCCNC(=N)N)NC1=O
B13: Example 153 (peptide)
peptide: cyclo(YR[Cit]ERG[dP]RRW[Dab]Y[Cit]K[dP]P)
modifications: lactam 4-11
SMILES: N=C(N)NCCC[C@@H]1NC(=O)[C@@H]2CCC(=O)NCC[C@H](NC(=O)[C@H](Cc3c[nH]c4ccccc34)NC(=O)[C@H](CCCNC(=N)N)NC(=O)[C@H](CCCNC(=N)N)NC(=O)[C@H]3CCCN3C(=O)CNC1=O)C(=O)N[C@@H](Cc1ccc(O)cc1)C(=O)N[C@@H](CCCNC(N)=O)C(=O)N[C@@H](CCCCN)C(=O)N1CCC[C@@H]1C(=O)N1CCC[C@H]1C(=O)N[C@@H](Cc1ccc(O)cc1)C(=O)N[C@@H](CCCNC(=N)N)C(=O)N[C@@H](CCCNC(N)=O)C(=O)N2

Each binder was assayed against human CXCR4 (human, UniProt P61073 1-352) (assay: cell-based or functional assay).
human CXCR4, sequence (P61073 whole entry): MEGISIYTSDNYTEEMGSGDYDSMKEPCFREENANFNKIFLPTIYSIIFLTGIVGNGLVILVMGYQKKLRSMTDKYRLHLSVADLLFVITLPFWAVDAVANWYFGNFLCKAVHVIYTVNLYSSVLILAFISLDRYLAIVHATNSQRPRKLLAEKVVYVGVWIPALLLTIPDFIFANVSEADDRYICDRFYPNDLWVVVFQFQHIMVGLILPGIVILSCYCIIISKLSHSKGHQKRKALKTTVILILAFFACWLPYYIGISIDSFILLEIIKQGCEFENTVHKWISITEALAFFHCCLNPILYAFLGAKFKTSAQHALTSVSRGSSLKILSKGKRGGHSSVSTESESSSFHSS

Binder | IC50 (nM) Ca2+ assay (method 1) | IC50 (nM) Ca2+ assay (method 2) | IC50 (µM) Cell migration assay
B1 | 2680 nM |  | 
cyclo(RR[2Nal]CY[Cit]KCYKGYCYR[Cit]CRG[dP]) (disulfide 8-13, 4-17) [Example 154] |  | 9.3 nM | 
B2 | 760 nM |  | 
cyclo(RRWCYRKCYKGYCYRKCRG[dP]) (disulfide 8-13, 4-17) [Example 160] |  | 0.38 nM | 
B3 |  | 0.65 nM | 
B4 |  | 4.2 nM | 
cyclo(RRWCYQKCYKGYCYR[Cit]CRG[dP]) (disulfide 8-13, 4-17) [Example 155] |  | 0.46 nM | 
RRWCYQKGYXGYGYRXCRGX (Cit at P16; disulfide Cys P4-Cys P17; backbone-cyclic via template Gly-DPro) [Example 157] |  | 11.3 nM | 
B5 |  | 0.17 nM | 
B6 |  | 4.2 nM | 
B7 | 3.1 nM |  | 2.75 µM
B8 |  | 0.24 nM | 
B9 | 1000 nM |  | 
RRYCYQKGYXPYGYRTCRGP (D-Pro at P10; disulfide Cys P4-Cys P17; backbone-cyclic via template Gly-LPro) [Example 159] |  | 118 nM | 
RRWCYQKGYKGYGYRXCRGX (Cit at P16; disulfide Cys P4-Cys P17; backbone-cyclic via template Gly-DPro) [Example 156] |  | 49 nM | 
B10 |  | 250 nM | 
cyclo([Pip′]RYCYQK[dP]PYR[Cit]CRG[dP]) (disulfide 4-13) [Example 150] |  | 1.4 nM | 
B11 |  | 1 nM | 
B12 | 1470 nM |  | 
B13 |  | 21.9 nM | 
